± gives the uncertainty stated by the source.
Test: abundance fitness (aPCA) (normalised: wild type 0, dead -1); higher = more abundant; growth selection in yeast, the domain comes from the species named
Details: Homo sapiens

Substance | abundance fitness
Scaffold attachment factor B1 L57A, Q15424 | -0.462 ± 0.062
Scaffold attachment factor B1 L57D, Q15424 | -0.202 ± 0.061
Scaffold attachment factor B1 L57F, Q15424 | -1.21 ± 0.1
Scaffold attachment factor B1 L57G, Q15424 | -0.759 ± 0.069
Scaffold attachment factor B1 L57H, Q15424 | -0.842 ± 0.1
Scaffold attachment factor B1 L57I, Q15424 | -0.32 ± 0.077
Scaffold attachment factor B1 L57K, Q15424 | -0.598 ± 0.088
Scaffold attachment factor B1 L57M, Q15424 | -0.272 ± 0.074
Scaffold attachment factor B1 L57N, Q15424 | -0.521 ± 0.067
Scaffold attachment factor B1 L57P, Q15424 | -0.62 ± 0.074
Scaffold attachment factor B1 L57Q, Q15424 | -0.527 ± 0.074
Scaffold attachment factor B1 L57R, Q15424 | -0.754 ± 0.054
Scaffold attachment factor B1 L57S, Q15424 | -0.584 ± 0.052
Scaffold attachment factor B1 L57V, Q15424 | -0.417 ± 0.065
Scaffold attachment factor B1 L57W, Q15424 | -1.37 ± 0.1
Scaffold attachment factor B1 L57Y, Q15424 | -1.23 ± 0.095
Scaffold attachment factor B1 L61C, Q15424 | -0.41 ± 0.055
Scaffold attachment factor B1 L61D, Q15424 | -0.615 ± 0.086
Scaffold attachment factor B1 L61E, Q15424 | -0.484 ± 0.06
Scaffold attachment factor B1 L61F, Q15424 | -0.299 ± 0.067
Scaffold attachment factor B1 L61G, Q15424 | -0.511 ± 0.051
Scaffold attachment factor B1 L61H, Q15424 | -0.611 ± 0.085

Substance | abundance fitness
Scaffold attachment factor B1 L61I, Q15424 | -0.614 ± 0.12
Scaffold attachment factor B1 L61K, Q15424 | -0.788 ± 0.12
Scaffold attachment factor B1 L61M, Q15424 | -0.336 ± 0.083
Scaffold attachment factor B1 L61N, Q15424 | -0.716 ± 0.13
Scaffold attachment factor B1 L61P, Q15424 | -0.583 ± 0.09
Scaffold attachment factor B1 L61R, Q15424 | -0.644 ± 0.057
Scaffold attachment factor B1 L61S, Q15424 | -0.508 ± 0.062
Scaffold attachment factor B1 L61T, Q15424 | -0.393 ± 0.078
Scaffold attachment factor B1 L61V, Q15424 | -0.311 ± 0.065
Scaffold attachment factor B1 L61W, Q15424 | -0.649 ± 0.052
Scaffold attachment factor B1 L61Y, Q15424 | -0.351 ± 0.072
Scaffold attachment factor B1 M58A, Q15424 | -0.224 ± 0.063
Scaffold attachment factor B1 M58C, Q15424 | -0.289 ± 0.083
Scaffold attachment factor B1 M58D, Q15424 | -0.582 ± 0.078
Scaffold attachment factor B1 M58F, Q15424 | -0.204 ± 0.075
Scaffold attachment factor B1 M58G, Q15424 | -0.368 ± 0.056
Scaffold attachment factor B1 M58H, Q15424 | -0.344 ± 0.079
Scaffold attachment factor B1 M58I, Q15424 | -0.151 ± 0.071
Scaffold attachment factor B1 M58K, Q15424 | -0.253 ± 0.086
Scaffold attachment factor B1 M58L, Q15424 | -0.106 ± 0.058
Scaffold attachment factor B1 M58N, Q15424 | -0.37 ± 0.097
Scaffold attachment factor B1 M58P, Q15424 | -0.598 ± 0.1

Substance | abundance fitness
Scaffold attachment factor B1 M58R, Q15424 | -0.205 ± 0.059
Scaffold attachment factor B1 M58S, Q15424 | -0.16 ± 0.064
Scaffold attachment factor B1 M58V, Q15424 | -0.114 ± 0.064
Scaffold attachment factor B1 M58W, Q15424 | -0.439 ± 0.069
Scaffold attachment factor B1 M58Y, Q15424 | -0.341 ± 0.079
Scaffold attachment factor B1 N47A, Q15424 | -0.236 ± 0.056
Scaffold attachment factor B1 N47C, Q15424 | -0.274 ± 0.073
Scaffold attachment factor B1 N47D, Q15424 | -0.167 ± 0.085
Scaffold attachment factor B1 N47E, Q15424 | -0.168 ± 0.074
Scaffold attachment factor B1 N47H, Q15424 | -0.349 ± 0.076
Scaffold attachment factor B1 N47I, Q15424 | -0.822 ± 0.09
Scaffold attachment factor B1 N47K, Q15424 | -0.349 ± 0.1
Scaffold attachment factor B1 N47L, Q15424 | -0.365 ± 0.061
Scaffold attachment factor B1 N47M, Q15424 | -0.224 ± 0.073
Scaffold attachment factor B1 N47P, Q15424 | -1.01 ± 0.11
Scaffold attachment factor B1 N47Q, Q15424 | -0.227 ± 0.067
Scaffold attachment factor B1 N47R, Q15424 | -0.207 ± 0.065
Scaffold attachment factor B1 N47S, Q15424 | -0.236 ± 0.07
Scaffold attachment factor B1 N47T, Q15424 | -0.331 ± 0.066
Scaffold attachment factor B1 N47V, Q15424 | -0.448 ± 0.056
Scaffold attachment factor B1 N47W, Q15424 | -0.593 ± 0.079
Scaffold attachment factor B1 N47Y, Q15424 | -0.483 ± 0.088

Substance | abundance fitness
Scaffold attachment factor B1 N53A, Q15424 | -0.175 ± 0.056
Scaffold attachment factor B1 N53C, Q15424 | -0.138 ± 0.083
Scaffold attachment factor B1 N53D, Q15424 | -0.038 ± 0.068
Scaffold attachment factor B1 N53E, Q15424 | -0.198 ± 0.087
Scaffold attachment factor B1 N53F, Q15424 | -0.354 ± 0.048
Scaffold attachment factor B1 N53G, Q15424 | -0.08 ± 0.057
Scaffold attachment factor B1 N53H, Q15424 | -0.127 ± 0.071
Scaffold attachment factor B1 N53I, Q15424 | -0.27 ± 0.084
Scaffold attachment factor B1 N53M, Q15424 | -0.376 ± 0.063
Scaffold attachment factor B1 N53P, Q15424 | -0.284 ± 0.06
Scaffold attachment factor B1 N53Q, Q15424 | -0.288 ± 0.089
Scaffold attachment factor B1 N53R, Q15424 | -0.067 ± 0.049
Scaffold attachment factor B1 N53S, Q15424 | -0.085 ± 0.051
Scaffold attachment factor B1 N53V, Q15424 | -0.158 ± 0.056
Scaffold attachment factor B1 N53W, Q15424 | -0.712 ± 0.059
Scaffold attachment factor B1 N71A, Q15424 | -0.329 ± 0.071
Scaffold attachment factor B1 N71C, Q15424 | -0.207 ± 0.07
Scaffold attachment factor B1 N71D, Q15424 | -0.247 ± 0.1
Scaffold attachment factor B1 N71E, Q15424 | -0.36 ± 0.072
Scaffold attachment factor B1 N71F, Q15424 | -0.338 ± 0.068
Scaffold attachment factor B1 N71H, Q15424 | -0.309 ± 0.1
Scaffold attachment factor B1 N71I, Q15424 | -0.468 ± 0.1

Substance | abundance fitness
Scaffold attachment factor B1 N71K, Q15424 | -0.253 ± 0.073
Scaffold attachment factor B1 N71L, Q15424 | -0.299 ± 0.062
Scaffold attachment factor B1 N71M, Q15424 | -0.3 ± 0.057
Scaffold attachment factor B1 N71P, Q15424 | -0.365 ± 0.076
Scaffold attachment factor B1 N71Q, Q15424 | -0.263 ± 0.095
Scaffold attachment factor B1 N71S, Q15424 | -0.19 ± 0.063
Scaffold attachment factor B1 N71T, Q15424 | -0.267 ± 0.092
Scaffold attachment factor B1 N71V, Q15424 | -0.211 ± 0.055
Scaffold attachment factor B1 N71W, Q15424 | -0.39 ± 0.057
Scaffold attachment factor B1 N71Y, Q15424 | -0.448 ± 0.094
Scaffold attachment factor B1 P72A, Q15424 | -0.187 ± 0.07
Scaffold attachment factor B1 P72C, Q15424 | -0.103 ± 0.061
Scaffold attachment factor B1 P72D, Q15424 | -0.407 ± 0.1
Scaffold attachment factor B1 P72E, Q15424 | -0.302 ± 0.068
Scaffold attachment factor B1 P72F, Q15424 | -0.185 ± 0.098
Scaffold attachment factor B1 P72G, Q15424 | -0.11 ± 0.048
Scaffold attachment factor B1 P72H, Q15424 | -0.149 ± 0.073
Scaffold attachment factor B1 P72I, Q15424 | -0.382 ± 0.11
Scaffold attachment factor B1 P72K, Q15424 | -0.423 ± 0.091
Scaffold attachment factor B1 P72L, Q15424 | -0.14 ± 0.048
Scaffold attachment factor B1 P72M, Q15424 | -0.362 ± 0.08
Scaffold attachment factor B1 P72N, Q15424 | -0.374 ± 0.11
